US11214774B2, “PINK1 C-terminal domain polypeptide and methods using the same in cancer treatment” (National Taiwan University, priority 2015, dated 2022)

Legend:
EGFR (HER1) [1] = biological target: T1, EGFR (HER1) (Homo sapiens, UniProt P00533); assay: EGFR (HER1) phosphorylation in lung cancer cells co-cultured with CTD polypeptide; type: cell-based; conditions: 2 μM, vs R9 control (FIG. 5A)
T1 construct: endogenous in cells; host or cells: CL1-5, HOP62, PC9, H1975 lung cancer cells
Text: (§1) R9: a peptide consisting of 9 arginine residues.
(§2) To determine the interaction between PINK1-CTD and HER1 or HER2, PINK1-CTD polypeptide was co-cultured with CL1-5, HOP62, PC9 or H1975 cells. In this example, the used PINK1-CTD was synthesized from Genmedkia Biotechnology Corp., and it was conjugated with 9 arginine residues for membrane attaching and internalization. The group in which the cells were co-cultured with a peptide only having 9 arginine residues (R9) was used as control group.

EGFR (HER1) [2] = biological target: T2, EGFR (HER1) (Homo sapiens, UniProt P00533, L858R/T790M); assay: as above; type: cell-based; conditions: H1975 cells; 2 μM; vs R9 control (FIG. 5A)
T2 construct: endogenous in cells; host or cells: CL1-5, HOP62, PC9, H1975 lung cancer cells
Text: as §1, §2

EGFR (HER1) [3] = assay: as above; type: cell-based; conditions: PC9 cells; 2 μM; vs R9 control (FIG. 5A)
Text: as §1, §2

HER2 = biological target: T3, HER2 (Homo sapiens, UniProt P04626); assay: HER2 phosphorylation in CL1-5 cells co-cultured with CTD polypeptide; type: cell-based; conditions: CL1-5 cell (FIG. 5B)
T3 construct: endogenous in cells; host or cells: CL1-5 cells
Text: as §1, §2

CL1-5 [4] = assay: CL1-5 lung cancer mouse xenograft model, CTD treatment; type: in vivo; conditions: CL1-5 xenograft; 2 μM injected every day or every two days; vs R9 (FIG. 11A)
Text: as §1
(§3) It was next investigated the in vivo tumor growth of PINK1-CTD stably expressing CL1-5, PC9, H1975 and H3255 cells. It has been shown that PINK1-CTD inhibits EGFR activation. It not only downregulates EGFR downstream signaling in EGFR-addicted PC9, H1975 and H3255 cells but also attenuates STATS-Y705 phosphorylation in EGFR non-addicted CL1-5 cells (FIGS. 9A and 9B). […] In addition, the synthetic polypeptide PINK1-CTD (Genmedkia Biotechnology Corp.) was used in mouse xenograft model. 2 μM of CTD polypeptide or R9 peptide (as control group) was injected into the mouse every day or every two days (as shown by arrow in FIGS. 11A and 11B).

H1975 [5] = assay: H1975 lung cancer mouse xenograft model, CTD treatment; type: in vivo; conditions: 2 μM injected every day or every two days, vs R9 (FIG. 11B)
Text: as §1, §3

CL1-5 [6] = assay: In vitro MTT assay, CL1-5; type: cell-based; conditions: 2 μM (FIG. 11C)
H1975 [7] = assay: In vitro MTT assay, H1975; type: cell-based; conditions: 2 μM (FIG. 11C)
PC9 = assay: In vitro MTT assay, PC9; type: cell-based; conditions: 2 μM (FIG. 11C)
Hop62 = assay: In vitro MTT assay, Hop62; type: cell-based; conditions: 2 μM (FIG. 11C)
EGFR = EGFR dimerization assay under PINK1-CTD overexpression; type: cell-based; conditions: CL1-5, PC9, H1975 and H3255 cells (FIG. 9A)
EGFR pathway = assay: Immunoblotting of EGFR pathway under PINK1-CTD overexpression; type: cell-based
Text: FIGS. 9A and 9B show hindrance of PINK1-CTD to EGFR dimerization and activation.
as §3

[8] = tested on: CL1-5, PC9, H1975 and H3255 cells; assay: Tumor xenografts of PINK1-CTD stably expressing lung cancer cells; type: in vivo; conditions: CL1-5, PC9, H1975 and H3255 xenografts (FIGS. 6B, 6E, 6H, 6K)
Text: FIGS. 6A-6L show tumor xenografts of shPINK1, PINK1 and PINK1-CTD stably expressing lung cancer cells. FIGs. A, D, G and J: PINK1 overexpression aggravated tumor growth in CL1-5 cells but suppressed tumor growth in PC9, H1975 and H3255 cells; FIGs. B, E, H and K: PINK1-CTD overexpression inhibited tumor growth in all cells tested; FIGs. C, F, I and L: PINK1 knockdown inhibited tumor growth in CL1-5 cells but promoted tumor growth in PC9, H1975 and H3255 cells. N=7 in each group.
as §3

[9] = tested on: EGFR-TKD (amino acids 645-954); assay: In vitro GST pull-down assay; type: binding; conditions: recombinant GST-fused PINK1-CTD incubated with purified His-tagged EGFR-TKD; anti-His immunoblot (FIG. 3E)
Text: To dissect the interaction between PINK1 and EGFR, it was next investigated whether these two protein kinases interact directly and through which domains they interplay. It was established a flag-fused full-length EGFR construct, EGFR-flag, (amino acids 1-1210) and 8 serial truncated EGFR-flag constructs based on different EGFR functional domains (amino acids 1-378, 1-621, 1-644, 1-690, 1-954, 645-1210, 645-954, 955-1210) (FIG. 3A). Each of these 9 constructs was co-overexpressed with full-length PINK1 in HEK293 cells. The cell lysates were immunoprecipitated by anti-flag antibody and the immunoprecipitates were immunoblotted by PINK1 antibody. […] It was simultaneously established a myc-fused full-length PINK1 construct and another 7 truncated PINK1-myc constructs containing amino acids 1-509, 1-155, 156-509, 156-309, 310-428, 429-581 and 78-581, respectively (FIG. 3C). Each of these 8 constructs was co-transfected with full-length EGFR-flag in HEK293 cells. The cell lysates were immunoprecipitated by anti-myc antibody and immunoblotted with anti-flag antibody. […] Recombinant GST-fused PINK1-CTD (amino acids 510-581) and negative-control construct GST-fused PINK1310-428 (amino acids 310-428) were individually incubated with purified His-tagged EGFR-TKD (amino acids 645-954) and analyzed by immunoblotting with anti-His antibody (FIG. 3E). […]

B1: CTD polypeptide: Synthesized PINK1-CTD (Genmedkia Biotechnology Corp.), conjugated with 9 arginine residues for membrane attaching and internalization (peptide)
peptide: SLWGEHILALKNLKLDKMVGWLLQQSAATLLANRLTEKCCVETKMKMLFLANLECETLCQAALLLCSWRAALRRRRRRRRR
EGFR (HER1) phosphorylation (EGFR (HER1) [1]; CL1-5 cells): effectively inhibited
EGFR (HER1) phosphorylation (EGFR (HER1) [1]; HOP62 cells): effectively inhibited
EGFR (HER1) phosphorylation (EGFR (HER1) [2]): effectively inhibited
EGFR (HER1) phosphorylation (EGFR (HER1) [3]): effectively inhibited
HER2 phosphorylation (HER2): inhibited HER2 phosphorylation in CL1-5 cell in a dose-dependent manner
in vivo tumor growth (CL1-5 [4]): inhibited in vivo tumor growth
in vivo tumor growth (H1975 [5]): inhibited in vivo tumor growth
cell viability (MTT) (CL1-5 [6]): reduced
cell viability (MTT) (H1975 [7]): reduced
cell viability (MTT) (PC9): reduced
cell viability (MTT) (Hop62): reduced

B2: PINK1-CTD: PINK1 C-terminal domain, amino acids 510 to 581 of PINK1 (SEQ ID NO: 1); overexpressed / stably expressed in cells (protein, listed as Homo sapiens)
chain: SLWGEHILALKNLKLDKMVGWLLQQSAATLLANRLTEKCCVETKMKMLFLANLECETLCQAALLLCSWRAAL
EGFR dimer to monomer ratio (EGFR): a decrease in EGFR dimer to monomer ratio
EGFR downstream signaling (EGFR pathway; EGFR-addicted PC9, H1975 and H3255 cells (FIG. 9B)): concurrently downregulated
phosphorylated EGFR-Y1068 to total EGFR ratio (EGFR pathway; all cells analyzed (FIG. 9B)): a decrease in phosphorylated EGFR-Y1068 to total EGFR ratio
STAT3-Y705 phosphorylation (EGFR pathway; wild-type EGFR CL1-5 cells (FIG. 9B)): only a decrease in STAT3-Y705 phosphorylation
in vivo tumor growth of PINK1-CTD stably expressing cells [8]: exerted inhibitory effects in all the cells tested

B3: GST-fused PINK1-CTD: Recombinant GST-fused PINK1 C-terminal domain, amino acids 510-581 of PINK1 (protein)
chain: SLWGEHILALKNLKLDKMVGWLLQQSAATLLANRLTEKCCVETKMKMLFLANLECETLCQAALLLCSWRAAL
modifications: left off: a dimerising Fc or GST
notes: Recombinant GST-fused PINK1 C-terminal domain, amino acids 510-581 of PINK1
direct binding to EGFR-TKD [9]: directly bound to EGFR-TKD
